Data: US9205136B2, “Human aminoacyl-tRNA synthetase polypeptides useful for the regulation of angiogenesis” (THE SCRIPPS RESEARCH INSTITUTE, priority 2000, dated 2015)

B1: EMAP II: human mature endothelial monocyte-activating polypeptide II, C-terminal His6 tag (protein)
chain: ANNDAVLKRLEQKGAEADQIIEYLKQQVSLLKEKAILQATLREEKKLRVENAKLKKEIEELKQELIQAEIQNGVKQIPFPSGTPLHANSMVSENVIQSTAVTTVSSGTKEQIKGGTGDEKKAKEKIEKKGEKKEKKQQSIAGSADSKPIDVSRLDLRIGCIITARKHPDADSLYVEEVDVGEIAPRTVVSGLVNHVPLEQMQNRMVILLCNLKPAKMRGVLSQAMVMCASSPEKIEILAPPNGSVPGDRITFDAFPGEPDKELNPKKKIWEQIQPDLHTNDECVATYKGVPFEVKGKGVCRAQTMSNSGIKHHHHHH
B2: S. cerevisiae TyrRS: S. cerevisiae tyrosyl-tRNA synthetase, NYR in place of ELR (protein)
chain: MSSAATVDPNEAFGLITKNLQEVLNPQIIKDVLEVQKRHLKLYWGTAPTGRPHCGYFVPMTKLADFLKAGCEVTVLLADLHAFLDNMKAPLEVVNYRAKYYELTIKAILRSINVPIEKLKFVVGSSYQLTPDYTMDIFRLSNIVSQNDAKRAGADVVKQVANPLLSGLIYPLMQALDEQFLDVDCQFGGVDQRKIFVLAEENLPSLGYKKRAHLMNPMVPGLAQGGKMSASDPNSKIDLLEEPKQVKKKINSAFCSPGNVEENGLLSFVQYVIAPIQELKFGTNHFEFFIDRPEKFGGPITYKSFEEMKLAFKEEKLSPPDLKIGVADAINELLEPIRQEFANNKEFQEASEKGYPVATPQKSKKAKKPKNKGTKYPGATKTNEIATKLEETKL

How the values were obtained:
chick CAM = test: Inhibition of VEGF165-induced or mini TyrRS-induced angiogenesis in chick CAM; type: in vivo; conditions: 3 μg inhibitor
Procedure: In vivo angiogenesis assays were conducted in chick chorioallantoic membrane (CAM) (Nicolaou et al., 1998, Bioorg. Med. Chem. 6:1185-208). Ten-day-old chick embryos were purchased from Mcintyre Poultry (Lakeside, Calif.) and were incubated at 37° C. and 70% humidity. A small hole was made with a small crafts drill (Dremel, Emerson Electric, Racine, Wis.) directly over the air sac at the end of the egg. The embryos were candled to determine a location to drill a second hole directly over embryonic blood vessels. […] A window was cut in the eggshell over the dropped CAM, exposing the CAM to direct access for experimental manipulation. Cortisone acetate-treated 5 mm filter disks were soaked with a particular protein sample (25 ng of VEGF165 or 250 ng of a given TyrRS molecule) and the filter disks added directly to the CAMs, which were relatively devoid of preexisting blood vessels. The windows were sealed with sterile tape and incubated at 37° C. At 0, 24, and 48 hours following incubation, 3 μg of […] (IP-10) (R & D Systems, Minneapolis, Minn.) was topically applied to the filter disks. After 72 hours, the CAM tissue associated with the filter disk was harvested and quantified using a stereomicroscope. Angiogenesis was assessed as the number of visible blood vessel branch points within the defined area of the filter disks. Each determination shown in FIG. 17 represents the mean from 5-8 embryos.
The angiostatic activity of human full-length TrpRS and human mini TrpRS was also analyzed in in vivo angiogenesis assays conducted in chick CAM. In vivo angiogenesis assays were performed as described in Example 12 with 3 μg of full-length TrpRS or mini TrpRS added to VEGF165-induced or mini TyrRS-induced CAM tissue.

PMNs [1] = test: PMN chemotaxis assay (ChemoTX microchemotaxis chamber); type: cell-based, human; conditions: for PMN chemotaxis (PMN migration): sample proteins 1 nM, 45 min
Procedure: Cells for the various cytokine assays described were prepared from acid citrate dextrose-treated blood of normal healthy volunteers. Human PMNs were isolated from the blood by centrifugation (700×g) over Histopaque 1077 and 1119 (Sigma). […] This procedure was repeated twice. Human MPs were isolated by centrifugation on Histopaque 1077 (Sigma). The mononuclear fraction was obtained, washed twice in Hanks' balanced salt solution, resuspended in RPMI-1640 medium (Sigma) containing 10% heat-inactivated fetal bovine serum (Sigma), plated in tissue culture flasks, and incubated in a 6% CO2 incubator at 37° C. for 1-2 hours (Kumagai et al., 1979, J. Immunol. Methods 29:17-25). Nonadherent cells were removed by washing the flasks three times with Hanks' balanced salt solution, and adherent cells were harvested by incubation with calcium-magnesium free phosphate-buffered saline containing 2 mM EDTA for 15 minutes at 4° C., followed by extensive washing.
PMN chemotaxis assays were performed in a ChemoTX microchemotaxis chamber (described herein). Sample proteins (1 nM) were added to the lower compartment of chemotaxis chambers, and 10^4 PMNs were added to the upper compartment. Chambers were incubated for 45 min, and migrating cells were counted in HPFs. Each determination shown in FIG. 2 represents the average of nine HPF measurements.

PMNs [2] = test: 125I-human mini TyrRS binding and competition assay on PMNs; conditions: for inhibition of 125I-mini TyrRS binding to PMNs by unlabeled ligand: 10 nM 125I-mini TyrRS, 200-fold molar excess of unlabeled ligand, on ice 2 hours
Procedure: The interaction of human mini TyrRS and PMNs was examined in binding studies using radioiodinated TyrRS molecules (Moser et al., 1993, J. Biol. Chem. 268:7125-28). Custom radioiodination of mini TyrRS with was performed by Research & Diagnostic Antibody (Richmond, Calif.). In the binding assays, 2×10^6 PMNs were first suspended in 120 μl of RPMI-1640 medium containing 20 mM Hepes (pH 7.4) and 10 mg/ml bovine serum albumin. […] Following incubation, cells were separated from unbound radioactivity by centrifugation at approximately 8000×g for 2 minutes through 500 μL, of a 10% sucrose/phosphate-buffered saline (PBS) cushion. The supernatant was aspirated, and the cell sediment was resuspended using EcoLite (ICN Biomedicals, Irvine, Calif.) and analyzed in a scintillation counter.
Following incubation, cells were separated from unbound radioactivity as described herein.

| Molecule | inhibition of VEGF165-induced angiogenesis in chick CAM (chick CAM; 25 ng VEGF165, 72 hours) | inhibition of mini TyrRS-induced angiogenesis in chick CAM (chick CAM; 250 ng mini TyrRS, 72 hours) | concentration dependence of PMN migration (PMNs [1]) | PMN chemotaxis (PMN migration) (PMNs [1]) | inhibition of 125I-mini TyrRS binding to PMNs by unlabeled ligand (PMNs [2]) | PMN chemotaxis over a concentration series (PMNs [1]; 0.1, 1, 10, 100, and 1000 nM) | dissociation constant relative to that for human mini TyrRS (PMNs [2]; PMN binding competition) [fold] |
| --- | --- | --- | --- | --- | --- | --- | --- |
| IP-10: angiostatic α-chemokine (R & D Systems) | inhibited | inhibited | – | – | – | – | – |
| B1 | – | – | bell-shaped concentration dependence | induction of PMN migration | neither the TyrRS carboxyl-terminal domain nor EMAP II inhibited | – | – |
| B2 | – | – | – | no chemotaxis was observed | inhibited the binding | No significant chemotaxis | ≤ 200 |
